From patent US20110059504A1
Numbering of substitutions follows the chain as printed.

Columns and labels:
human myostatin (human) [1] = molecular target: T1, human myostatin (human) (UniProt O14793)
T1 sequence (biotinylated in selections and radioactive assays (site not stated), looked up): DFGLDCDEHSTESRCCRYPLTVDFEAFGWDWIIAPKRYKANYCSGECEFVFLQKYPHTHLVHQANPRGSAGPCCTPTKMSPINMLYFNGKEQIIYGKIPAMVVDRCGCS

human myostatin (human) [2] = molecular target: T1, human myostatin (human); assay: cell-based or functional assay

B1: M3-1, E. coli-produced (designed binder)
chain: MTIPEIIIKVRGTQVVGSDMTVIVEFTNPLKETLRNVWVHLDGPGVTRPMKKMFRAIPMNHKVQWEEVVRPWVSGHRKLIASMPQLFHIHVYGELDVQIQRRHHHHHH
Human myostatin (human) [1]
  EC50 (read off the curve); blocking of myostatin-induced inhibition of MPC-11 proliferation: 30 nM

B2: M56, E. coli-produced (designed binder)
chain: MTIPEIIIKVRGTQVVGSDMTVIVEFSNPFKETLRNVWVHLDGPGVTRPMKKMFSEIRPNSTVQWEEVVRPWVSGHRKLIARCSLSPWHVYGELDVQIQRRHHHHHH
Human myostatin (human) [2]
  MPC-11 cell proliferation assay, IC50: 150 to 200 nM

B3: M71, E. coli-produced (designed binder)
chain: B2 chain with S27T, N36S
Human myostatin (human) [2]
  MPC-11 cell proliferation assay, IC50: 150 to 200 nM

B4: M07, E. coli-produced (designed binder)
chain: B2 chain with S27T, N36S, S55R, R58P, N60K, S61T, S84Q, S86L
Human myostatin (human) [2]
  MPC-11 cell proliferation assay, IC50: 150 to 200 nM
